The target in the test is T1, VEGFR-2 (KDR), endogenous in A375 human malignant melanoma cells (human, UniProt P35968 20-1356, limits assumed).
T1 construct: Endogenous protein in cell lysate; also called Flk
Nature of the test: co-immunoprecipitation: anti-FLT IP of transfected hypoxic A375 cell fraction, Western blot with anti-VEGFR-2. How it is done: HMMCs transfected with pCMV.Flt23K or pCMV.Flt24K were subjected to hypoxia 48 hours after transfection. Two days later, the cellular fraction was immunoprecipitated with anti-FLT antibody (epitope specific for domains 2 and 3; Santa Cruz, Calif.) and subsequently underwent Western blotting with an anti-VEGF or an anti-VEGFR-2 antibody. A 50 kDa band (consistent with a VEGF homodimer interacting with the intraceptor) was detected in cells transfected with pCMV.Flt23K or pCMV.Flt24K (FIG. 5A). A 30 kDa band was present in cells transfected with pCMV.Flt24K but not pCMV.Flt23K (FIG. 5B).

T1 sequence (P35968 20-1356 limits assumed): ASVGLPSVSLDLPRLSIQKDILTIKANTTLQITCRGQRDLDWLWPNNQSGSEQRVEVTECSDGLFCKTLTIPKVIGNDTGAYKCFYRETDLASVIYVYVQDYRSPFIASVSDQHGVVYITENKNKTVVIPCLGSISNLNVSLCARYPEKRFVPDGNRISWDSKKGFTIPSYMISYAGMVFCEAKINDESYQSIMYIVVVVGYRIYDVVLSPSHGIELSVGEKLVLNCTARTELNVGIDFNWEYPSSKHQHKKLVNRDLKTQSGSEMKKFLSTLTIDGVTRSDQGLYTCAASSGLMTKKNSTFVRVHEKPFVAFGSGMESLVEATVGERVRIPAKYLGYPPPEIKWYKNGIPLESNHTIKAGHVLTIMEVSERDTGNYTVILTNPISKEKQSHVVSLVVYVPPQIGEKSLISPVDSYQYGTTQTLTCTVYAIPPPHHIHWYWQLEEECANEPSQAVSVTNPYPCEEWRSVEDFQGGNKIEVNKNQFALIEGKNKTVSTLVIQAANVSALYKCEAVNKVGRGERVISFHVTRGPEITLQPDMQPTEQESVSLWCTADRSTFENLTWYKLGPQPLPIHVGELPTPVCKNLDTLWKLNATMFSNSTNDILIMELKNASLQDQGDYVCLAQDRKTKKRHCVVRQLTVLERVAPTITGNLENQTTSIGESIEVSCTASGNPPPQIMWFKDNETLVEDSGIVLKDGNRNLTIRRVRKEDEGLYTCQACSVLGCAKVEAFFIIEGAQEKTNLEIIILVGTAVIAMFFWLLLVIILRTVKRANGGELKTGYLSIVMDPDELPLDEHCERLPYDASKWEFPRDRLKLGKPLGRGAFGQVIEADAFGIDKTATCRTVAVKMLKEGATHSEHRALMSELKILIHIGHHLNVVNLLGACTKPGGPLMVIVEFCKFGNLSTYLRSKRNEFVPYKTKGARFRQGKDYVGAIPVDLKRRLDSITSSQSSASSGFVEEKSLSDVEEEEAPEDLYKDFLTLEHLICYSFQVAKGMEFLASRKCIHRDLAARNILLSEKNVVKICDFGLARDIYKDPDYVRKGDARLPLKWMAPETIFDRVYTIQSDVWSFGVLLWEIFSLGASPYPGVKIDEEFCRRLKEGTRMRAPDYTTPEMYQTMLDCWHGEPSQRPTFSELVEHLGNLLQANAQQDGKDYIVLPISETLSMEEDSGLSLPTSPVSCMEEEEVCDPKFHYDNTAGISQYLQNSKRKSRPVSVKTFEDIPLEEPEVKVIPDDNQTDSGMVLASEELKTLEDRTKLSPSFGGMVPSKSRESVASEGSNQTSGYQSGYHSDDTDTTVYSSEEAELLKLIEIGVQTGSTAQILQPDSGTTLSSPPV

B1: Flt23K intraceptor (Flt23-KDEL; domains 2 and 3 of VEGFR-1 (Flt) fused at the C-terminus to the ER retention signal KDEL) (receptor)
chain: DTGRPFVEMYSEIPEIIHMTEGRELVIPCRVTSPNITVTLKKFPLDTLIPDGKRIIWDSRKGFIISNATYKEIGLLTCEATVNGHLYKTNYLTHRQTNTIIDVQISTPRPVKLLRGHTLVLNCTATTPLNTRVQMTWSYPDEKNKRASVRRRIDQSNSHANIFYSVLTIDKMQNKDKGLYTCRVRSGPSFKSVNTSVHIYDKAFITVKHRKKDEL
notes: Expressed inside transfected cells from pCMV.Flt23K, not purified; also called pCMV.Flt23K (expression plasmid); pCMV.Flt23
In the case of B1, the binding result is listed as “no binding”.

The record behind these values is US20080318857A1 (MEDICAL COLLEGE OF GEORGIA RESEARCH INSTITUTE, published 2008).
